Laboratory results taken from PMC2824034, “The indispensable N-terminal half of eIF3j/HCR1 co-operates with its structurally conserved binding partner eIF3b/PRT1-RRM and eIF1A in stringent AUG selection” (Journal of molecular biology, 2010).
Where a chain is given by its changes, count along the chain named. In names and notes the source's numbering stands.

B1: heIF3b-RRM_(170-274) (domain or fragment, human, UniProt P55884 170-274, looked up)
chain: GDVLKDRPQEADGIDSVIVVDNVPQVGPDRLEKLKNVIHKIFSKFGKITNDFYPEEDGKTKGYIFLEYASPAHAVDAVKNADGYKLDKQHTFRVNLFTDFDKYMT
notes: 13C/15N-labeled in some NMR samples; The limits are printed for the NMR complex; the ITC names only heIF3b-RRM; also called human eIF3b-RRM; heIF3b-RRM domain; source: E. coli BL21(DE3), purified (nickel-chelating column, TEV cleavage, second nickel column)
B2: His6-heIF3b-RRM-I210A (domain or fragment, human, UniProt P55884 170-274, looked up)
chain: B1 chain with I41A
notes: human eIF3b, RNA recognition motif domain, I210A; source: E. coli BL21(DE3), purified (nickel-chelating column)
B3: His6-heIF3b-RRM-Y253A (domain or fragment, human, UniProt P55884 170-274, looked up)
chain: B1 chain with Y84A
notes: human eIF3b, RNA recognition motif domain, Y253A; source: E. coli BL21(DE3), purified (nickel-chelating column)
B4: His6-heIF3b-RRM-F261A (domain or fragment, human, UniProt P55884 170-274, looked up)
chain: B1 chain with F92A
notes: human eIF3b, RNA recognition motif domain, F261A; source: E. coli BL21(DE3), purified (nickel-chelating column)
B5: heIF3j_(35-69) peptide (peptide, UniProt O75822 35-69, looked up)
peptide: GGDRWEGEDEDEDVKDNWDDDDDEKKEEAEVKPEV
notes: human eIF3j, residues 35-69, with the N-terminal acidic motif (NTA) around Trp52; 13C/15N-labeled in some NMR samples; also called heIF3j peptide; short heIF3j peptide; source: E. coli BL21(DE3), purified (nickel-chelating column, TEV cleavage, nickel column, HiTrap DEAE); not shown: His6, N-terminal, cleaved; lipoyl domain, N-terminal, cleaved

Tests used:
Settings in all cases: both partners purified
heIF3j-W52A = biological target: T1, heIF3j-W52A (human, UniProt O75822 1-258, W52A); experiment: ITC; VP-ITC; cell: 50 μM full-length heIF3j wt or mutant; syringe: 1 mM heIF3b-RRM; 20 mM Hepes pH 7.5, 200 mM NaCl, 25°C
T1 construct: human eIF3j, full length, W52A; source: E. coli BL21(DE3), purified (nickel-chelating column, TEV cleavage, second nickel column)

heIF3j-D50K-D53K-D57K = biological target: T2, heIF3j-D50K-D53K-D57K (human, UniProt O75822 1-258, D50K | D53K | D57K); experiment: as above
T2 construct: human eIF3j, full length, D50K, D53K and D57K; source: E. coli BL21(DE3), purified (nickel-chelating column, TEV cleavage, second nickel column)

[1] = biological target: T3, heIF3j (full-length, untagged, wt) (human, UniProt O75822 1-258); experiment: as above
T3 construct: human eIF3j, full length; also called human eIF3j; wt heIF3j; source: E. coli BL21(DE3), purified (nickel-chelating column, TEV cleavage, second nickel column)

heIF3j-N51A = biological target: T4, heIF3j-N51A (human, UniProt O75822 1-258, N51A); experiment: as above
T4 construct: human eIF3j, full length, N51A; source: E. coli BL21(DE3), purified (nickel-chelating column, TEV cleavage, second nickel column)

heIF3j-N51A-W52A = biological target: T5, heIF3j-N51A-W52A (human, UniProt O75822 1-258, N51A | W52A); experiment: as above
T5 construct: human eIF3j, full length, N51A and W52A; source: E. coli BL21(DE3), purified (nickel-chelating column, TEV cleavage, second nickel column)

[2] = biological target: T3, heIF3j (full-length, untagged, wt); experiment: pull-down; His6-heIF3b-RRM (wt or mutant) incubated with untagged full-length heIF3j (30 μM each) 15 min at room temperature, His-select spin columns; 50 mM sodium phosphate pH 8, 100 mM NaCl; washes with 5 mM imidazole, elution with 250 mM imidazole; SDS-PAGE, InstantBlue
heIF3b-RRM_(170-274) = biological target: B1; experiment: NMR solution structure; 13C/15N-labeled heIF3b-RRM with heIF3j peptide or labeled peptide with heIF3b-RRM; 20 mM deuterated TRIS pH 7.5, 100 mM NaCl, 25°C; 0.7 mM RRM, 0.7-1.0 mM peptide; 32 intermolecular NOEs

T3 sequence (O75822 whole entry): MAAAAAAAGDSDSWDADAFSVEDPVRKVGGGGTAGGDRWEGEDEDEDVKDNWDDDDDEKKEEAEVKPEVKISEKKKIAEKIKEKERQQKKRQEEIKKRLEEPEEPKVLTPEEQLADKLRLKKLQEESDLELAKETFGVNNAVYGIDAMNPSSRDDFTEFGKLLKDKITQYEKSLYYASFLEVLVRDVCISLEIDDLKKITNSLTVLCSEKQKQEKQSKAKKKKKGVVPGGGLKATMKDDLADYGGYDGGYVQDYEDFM
T4 sequence (O75822 whole entry N51A): as the sequence (O75822 whole entry) above, with N51A counted along it
T2 sequence (O75822 whole entry D50K/D53K/D57K): as the sequence (O75822 whole entry) above, with D50K, D53K, D57K counted along it
T5 sequence (O75822 whole entry N51A/W52A): as the sequence (O75822 whole entry) above, with N51A, W52A counted along it
T1 sequence (O75822 whole entry W52A): as the sequence (O75822 whole entry) above, with W52A counted along it

Binder: B1
- Kd (heIF3j-W52A): > 10000 µM
- Kd (heIF3j-D50K-D53K-D57K): > 10000 µM
- Kd [1]: 20.3 µM
- Kd (heIF3j-N51A): 55 ± 0.3 µM
- Kd (heIF3j-N51A-W52A): > 10000 µM

Binder: B2
- binding result [2]: binds

Binder: B3
- binding result [2]: binds

Binder: B4
- binding result [2]: binds

Binder: B5
- binding result (heIF3b-RRM_(170-274)): binds
